Laboratory results taken from paper PMC9485624.

How the values were obtained:
[1] = molecular target: recombinant truncated CrrB (135-353 amino acids) P151L mutant (Klebsiella pneumoniae); experiment: not stated; purified recombinant His-tagged protein after Ni-NTA; how dimer and monomer were told apart is not stated in the text (Supplementary Figure S1)
[2] = molecular target: recombinant truncated CrrB (135-353 amino acids) (Klebsiella pneumoniae); experiment: as above

| Substance | stoichiometry N [1] | stoichiometry N [2] |
| --- | --- | --- |
| recombinant truncated CrrB (135-353 amino acids) P151L mutant (domain or fragment) | 2 | – |
| recombinant truncated CrrB (135-353 amino acids) (domain or fragment) | – | 2 |
